This is an account of results in US20200385479A1 (LYVGEN BIOPHARMA, published 2020).

Where a chain is given by its changes, count along the chain named. Names may count otherwise.

B1: LYV390 (30C11-IgG4) (antibody, V domains shown)
VH: QIQLVQSGPELKKPGESVKISCKASGYTFTDYAMHWVKQAPGKALKWMGLINTYTGKPTYVDDLKGRFVFSLEASASTAKLQISNLKNEDTAIYFCARYYHDGTYYGWFANWGQGTLVTVSS
VL: DTVLTQSPALAVSPGERVTVSCGATESVSTALNWYQQKPGQQPRLLIYGASNLESGVPARFSGSGSGTDFTLSIDPVEADDTATYFCQQTWNDPLTFGSGTKLEIKR
notes: Chimeric antibody, human IgG4 S228P / human kappa; also called 30C11 in hG4SP / human kappa
B2: LYV402 (26B3-IgG4) (antibody, V domains shown)
VH: EVKLLESGGGLVQPGGSLKLSCAASGFDFSRYWMSWVRQAPGKGLEWIGEINPDSNPINYTPSLKDKFIISRDNAKNTLYLQMSKVRSEDTALYYCARDGSSSRYFDVWGAGTTVTVSS
VL: DIVMTQSPATLSVTPGDRVSLSCRASQSISDYLHWYQQKSHESPRLLIKYVSQSISGIPSRFSGSGSGSDFTLSINSVEPEDVGVYYCQNGHSFPPTFGGGTKLEIKR
notes: Chimeric antibody, human IgG4 S228P / human kappa; also called 26B3b in hG4SP / human kappa
B3: LYV372 (23D2-IgG4) (antibody, V domains shown)
VH: QVQLQQSGAELVRPGSSVKISCKASGYAFSIYWMNWVKQRPGQGLEWIGQIYPGDGYTNYNGKFKGKATLTADKSSSTAYMQLSSLTSEDSAVYFCARGQLGLDGYWGQGTTLTVSS
VL: QIVLTQSPTIMSASPGEKVTMTCSASSSVSYIYWYQQKPGSSPRLLIYDTSNLASGVPVRFSGSGSGTSYSLTISRMEAEDAATYYCQQWNIYPYTFGGGTKLEIKR
notes: Chimeric antibody, human IgG4 S228P / human kappa; also called 23D2 in human IgG4S; 23D2b in human Kappa
B4: LYV375 (22F2-IgG4) (antibody, V domains shown)
VH: B3 VH with Q1E, Q3K, Q5V, Q6E, I31L
VL: B3 VL with T9A
notes: Chimeric antibody, human IgG4 S228P / human kappa; also called 22F2 in human IgG4SP / human Kappa
B5: LYV370 (20A12-IgG4) (antibody, V domains shown)
VH: QIQLVQSGPELKKPGETVKISCKASGYTFTTYGMSWVKQAPGKGLKWMGWINTYSGVPTYADDFKGRFAFSLETSASTAYLQINNLKNEDMAIYFCARGYGSPDYWGQGTTLTVSS
VL: QIVLTQSPAIMSASPGEKVTMTCSASSSVSYMNWYQQKSGTSPKRWIFDTSKLASGVPARFSGSGSGTSYSLTISSMEAEDAATYYCQQWSGNPPISTFGSGTKLEIKR
notes: Chimeric antibody: hybridoma variable domains on human IgG4 constant region with hinge S228P (EU numbering) and human kappa constant region; S228P is already in the full chain entry; also called 20A12 in human IgG4SP / human kappa
B6: LYV371 (11E10-IgG4) (antibody, V domains shown)
VH: QVQLQQSGAELVRPGASVTLSCKASGYTFAGFEMHWIKQTPVHGLGWIGAIDPKTGGTDYNQKFKDKALLTADKSSNTAYMELRSLTSEDSAVYYCTRDLGYFDVWGTGTTVTVSS
VL: DIQMTQTTSSLSASLGDRVTISCRASQDIRSNLNWYQQKPDGTVKLLIYYTSRLHSGVPSRFSGSGSGTDYSLTISNLEQEDIATYFCQQSEKLPRTFGGGTKLEIRR
notes: Chimeric antibody, human IgG4 S228P / human kappa; also called 11E10 in human IgG4SP / human Kappa

One experiment deals with T1, CD137 antigen (Octet antigen binding assay) (UniProt Q07011 24-186, limits assumed).
T1 construct: also called 4-1BB; TNFRSF9
Kind of experiment: BLI, Octet Red 96, antibody on anti-human Fc (AHC) biosensors, 1:1 model. On the procedure:
The chimeric antibodies were tested in an antigen binding assay on Octet Red 96 to estimate binding kinetics. Antibodies were loaded onto anti-human Fc (AHC) biosensors. Loaded sensors were dipped into a serial dilution of each […] (300 nM, 1:3 down, 7 points) in assay buffer (PBS with 0.1% BSA, 0.02% Tween-20 (pH 7.2)).
Background: BLI is a label-free optical method that tracks binding on a fibre tip over time.
As for B1, the Kd stood at 5.3 nM, the koff amounted to 0.0014 s⁻¹ and the kon turned out to be 260000 M⁻¹ s⁻¹.
Molecule B2 returned a Kd of 2.1 nM, a koff of 0.00034 s⁻¹ and a kon of 160000 M⁻¹ s⁻¹.
The corresponding values for B3 are 5.8 nM, 0.0016 s⁻¹ and 280000 M⁻¹ s⁻¹.
B4 returned a Kd of 8.2 nM, a koff of 0.0023 s⁻¹ and an association rate constant (kon) of 280000 M⁻¹ s⁻¹.
The corresponding values for B5 are 5.7 nM, 0.001 s⁻¹ and 180000 M⁻¹ s⁻¹.
With B6, the Kd was 3.8 nM, the koff was found to be 0.0011 s⁻¹ and the kon was 280000 M⁻¹ s⁻¹.

In the next experiment the target is T2, human CD137-His tag protein.
T2 construct: It differs from the cell-surface CD137 and the Octet antigen; also called Sino Biological Inc. Cat #10377-H08H-100; not shown: C-terminal His tag of the vendor's product (Sino Biological Cat #10377-H08H-100)
T2 sequence (chain, as listed by the source limits assumed): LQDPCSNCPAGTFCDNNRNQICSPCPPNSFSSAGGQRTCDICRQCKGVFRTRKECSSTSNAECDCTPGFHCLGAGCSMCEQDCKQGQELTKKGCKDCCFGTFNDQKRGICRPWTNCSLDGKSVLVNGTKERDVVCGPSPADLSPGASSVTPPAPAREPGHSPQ
Kind of experiment: ELISA, plate coated with human CD137-His at 1 ug/ml, anti-human IgG-HRP, A450. On the procedure:
CD137 protein (human CD137-His tag protein (Sino Biological Inc. Cat #10377-H08H-100) or rhesus monkey CD137-His (Sino Biological Inc. Cat #90305-K08H-100)) was diluted in PBS to 1 ug/ml and used to coat an ELISA plate (Corning, Cat #9018, high binding) at a concentration of 50 ul/well. The plate was incubated overnight at 4° C. The plate was then decanted and washed with PBS-T, and 200 ul/well assay diluent (1×PBS/1% BSA/0.05% Tween-20/0.05% proclin 300) was added. After a 3 hour incubation at room temperature, the plate was washed with PBS-T three times. The testing antibodies were diluted in assay diluent to 0, 0.000003, 0.00003, 0.0003, 0.003, 0.03, and 0.3 ug/ml or approximately 0, 0.00002, 0.0002, 0.002, 0.02, 0.2 and 2 nM and then added to the plate (50 ul/well). The plate was incubated for one hour at 37° C. and then washed three times with PBS-T. Anti-human IgG-HRP conjugate (Bethyl Cat #A80-319P) at a 1:10,000 dilution was added to the plate (100 ul/well). The plate was incubated for 0.5 hour at 37° C., followed by washing with PBS-T three times. The TMB substrate solution was added (100 ul/well). The color was allowed to develop for 8 minutes before it was stopped with 100 ul/well 2N H₂SO₄. Absorbance at 450 nm was determined with an ELISA reader.
Background: An ELISA detects its analyte on a solid surface through an enzyme-linked reagent.
For B1, the “EC50 (read off the curve)” value was around 0.04 nM.
The same measure, in the same setting: the result for B2 reads around 0.005 nM; that for B4, 0.01 to 0.02 nM.
Take B5: the binding result is recorded as “binds”.

One may read the Kd as a measure of binding affinity in units of concentration. High values mean a looser complex, low ones a tighter complex. By koff is commonly meant the first-order rate constant of dissociation. What is called kon is the rate constant with which the complex forms. One may read the EC50 (read off the curve) as the concentration needed to bring the measured effect to its halfway point. Low values mean a more potent agent, high ones a less potent agent.
